Results reported in PMC10255477, “The Inhibitory Effects and Cytotoxic Activities of the Stem Extract of Nepenthes miranda against Single-Stranded DNA-Binding Protein and Oral Carcinoma Cells”.

B1: PS4/PS3 (dsDNA)
DNA 1: GGGTACCGAGCTATCCGAATTCGGG
DNA 2: CCCGAATTCGGATAGCTCGGTACCC

Key:
[1] = target: T1, KpSSB (single-stranded DNA-binding protein) (Klebsiella pneumoniae, UniProt A6TGW7 1-174); test: EMSA; up to 5000 nM protein, no shift; EMSA: 40 mM Tris-HCl pH 7.5, 50 mM NaCl, 37 °C, 60 min; DNA 30 fmol/uL; 8% native PAGE in TBE; [Protein]50 by linear interpolation; settings: protein: recombinant, chain copies: 4
T1 sequence (A6TGW7 whole entry): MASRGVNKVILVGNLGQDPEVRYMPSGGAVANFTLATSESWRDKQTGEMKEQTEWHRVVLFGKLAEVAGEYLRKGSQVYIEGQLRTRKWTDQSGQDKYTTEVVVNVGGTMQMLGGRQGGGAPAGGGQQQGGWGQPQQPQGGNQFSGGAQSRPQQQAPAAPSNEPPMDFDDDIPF

[2] = target: T1, KpSSB (single-stranded DNA-binding …); test: EMSA; EMSA: 40 mM Tris-HCl pH 7.5, 50 mM NaCl, 37 °C, 60 min; DNA 30 fmol/uL; 8% native PAGE in TBE; [Protein]50 by linear interpolation; settings: protein: recombinant; chain copies: 4; label: 5' biotin

Binder | apparent K (half saturation) [2] | further results
B1 | – | binding result ([1]; blunt, 25 bp): no binding
TTTTTTTTTTTTTTTTTTTTTTTTTTTTTT (ssDNA) [dT30] | 155 ± 20 nM | –
TTTTTTTTTTTTTTTTTTTTTTTTTTTTTTTTTTT (ssDNA) [dT35] | 117 ± 18 nM | –
TTTTTTTTTTTTTTTTTTTT (ssDNA) [dT20] | – | binding result ([1]; label: 5' biotin): no binding
